In patent US20200317792A1 (INSMED, published 2020):

Molecular target: T1, recombinant, soluble his tagged human EGFR (Sino Biologicals) (human, UniProt P00533 25-645)
T1 construct: extracellular domain; also called human epidermal growth factor receptor; not shown: his tag
Test: BLI (ForteBio Octet Red), IgG on protein A tips, 100 nM soluble EGFR;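 also: antibody binding to EGFR read out as on and off rates plus equilibrium affinity, calculated with the Octet instrument software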

binding result	Binder
binds	CoDAH design C1 VH/C4 Vκ (antibody, V domains shown, Cross pair; Measured as full length IgG) VH: QVQLQQSGPGLVKPSQTLSLTCTVSGFSLTNYGVHWVRQSPGKGLEWLGVIWSGGNTDYNTPFTSRLTISKDTSKNQVSLKLSSVTSNDTAVYYCARALTYYDYEFAYWGQGTLVTVSA VL: DIVLTQSPVILSVSPGERVTFSCRASQSIGTNIHWYQQKPDQSPKLLIKYASESISGVPSRFSGSGSGTDFTLTINSVESEDIADYYCQQNNNWPTTFGQGTKLELKR
binds	CoDAH design C4 VH/C2 Vκ (antibody, V domains shown, Cross pair; Measured as full length IgG) VH: QVQLQQSGPGLVKPSQTLSLTCTVSGFSLTNYGVHWVRQSPGKGLEWLGVIWSGGNTDYNTPFTSRLTISKDNSKSQVFFKMNSLQSNDTAVYYCARALTYYDYEFAYWGQGTLVTVSA VL: DIVLTQSPVFLSVTPGEKVTITCRASQSIGTNIHWYQQKPDQSPKLLIKYASESISGVPSRFSGSGSGTDFTLTINSVESEDIADYYCQQNNNWPTTFGAGTKLELKR
binds	CoDAH design C4 VH/C1 Vκ (antibody, V domains shown, Cross pair; Measured as full length IgG) VH: QVQLQQSGPGLVKPSQTLSLTCTVSGFSLTNYGVHWVRQSPGKGLEWLGVIWSGGNTDYNTPFTSRLTISKDNSKSQVFFKMNSLQSNDTAVYYCARALTYYDYEFAYWGQGTLVTVSA VL: DIVLTQSPDFQSVTPKEKVTITCRASQSIGTNIHWYQQKPDQSPKLLIKYASESISGVPSRFSGSGSGTDFTLTINSVESEDIADYYCQQNNNWPTTFGAGTKLELKR
binds	CoDAH design C2 VH/C4 Vκ (antibody, V domains shown, Cross pair; Measured as full length IgG) VH: QVQLQQSGPGLVKPSQTLSLTCTVSGFSLTNYGVHWVRQSPGKGLEWLGVIWSGGNTDYNTPFTSRLTISVDTSKNQVSLKLSSVTSNDTAVYYCARALTYYDYEFAYWGQGTLVTVSA VL: DIVLTQSPVILSVSPGERVTFSCRASQSIGTNIHWYQQKPDQSPKLLIKYASESISGVPSRFSGSGSGTDFTLTINSVESEDIADYYCQQNNNWPTTFGQGTKLELKR
binds	CoDAH design C1 VH/C5 Vκ (antibody, V domains shown, Cross pair; Measured as full length IgG) VH: QVQLQQSGPGLVKPSQTLSLTCTVSGFSLTNYGVHWVRQSPGKGLEWLGVIWSGGNTDYNTPFTSRLTISKDTSKNQVSLKLSSVTSNDTAVYYCARALTYYDYEFAYWGQGTLVTVSA VL: EIVLTQSPVILSVSPGERVTFSCRASQSIGTNIHWYQQKTDQSPRLLIKYASESISGIPSRFSGSGSGTDFTLTINSVESEDIADYYCQQNNNWPTTFGQGTKLELKR
binds	CoDAH design C3 VH/C5 Vκ (antibody, V domains shown, Cross pair; Measured as full length IgG) VH: QVQLQQSGPGLVKPSETLSLTCTVSGFSLTNYGVHWVRQSPGKGLEWLGVIWSGGNTDYNTPFTSRLTISVDTSKNQVSLKLSSVTSNDTAVYYCARALTYYDYEFAYWGQGTLVTVSA VL: EIVLTQSPVILSVSPGERVTFSCRASQSIGTNIHWYQQKTDQSPRLLIKYASESISGIPSRFSGSGSGTDFTLTINSVESEDIADYYCQQNNNWPTTFGQGTKLELKR
binds	CoDAH design C2 VH/C5 Vκ (antibody, V domains shown, Cross pair; Measured as full length IgG) VH: QVQLQQSGPGLVKPSQTLSLTCTVSGFSLTNYGVHWVRQSPGKGLEWLGVIWSGGNTDYNTPFTSRLTISVDTSKNQVSLKLSSVTSNDTAVYYCARALTYYDYEFAYWGQGTLVTVSA VL: EIVLTQSPVILSVSPGERVTFSCRASQSIGTNIHWYQQKTDQSPRLLIKYASESISGIPSRFSGSGSGTDFTLTINSVESEDIADYYCQQNNNWPTTFGQGTKLELKR
binds	CoDAH design C1 VH/C1 Vκ (antibody, V domains shown, Pareto optimal design; Measured as full length IgG) VH: QVQLQQSGPGLVKPSQTLSLTCTVSGFSLTNYGVHWVRQSPGKGLEWLGVIWSGGNTDYNTPFTSRLTISKDTSKNQVSLKLSSVTSNDTAVYYCARALTYYDYEFAYWGQGTLVTVSA VL: DIVLTQSPDFQSVTPKEKVTITCRASQSIGTNIHWYQQKPDQSPKLLIKYASESISGVPSRFSGSGSGTDFTLTINSVESEDIADYYCQQNNNWPTTFGAGTKLELKR
binds	CoDAH design C2 VH/C2 Vκ (antibody, V domains shown, Pareto optimal design; Measured as full length IgG) VH: QVQLQQSGPGLVKPSQTLSLTCTVSGFSLTNYGVHWVRQSPGKGLEWLGVIWSGGNTDYNTPFTSRLTISVDTSKNQVSLKLSSVTSNDTAVYYCARALTYYDYEFAYWGQGTLVTVSA VL: DIVLTQSPVFLSVTPGEKVTITCRASQSIGTNIHWYQQKPDQSPKLLIKYASESISGVPSRFSGSGSGTDFTLTINSVESEDIADYYCQQNNNWPTTFGAGTKLELKR
binds	CoDAH design C1 VH/C2 Vκ (antibody, V domains shown, Cross pair; Measured as full length IgG) VH: QVQLQQSGPGLVKPSQTLSLTCTVSGFSLTNYGVHWVRQSPGKGLEWLGVIWSGGNTDYNTPFTSRLTISKDTSKNQVSLKLSSVTSNDTAVYYCARALTYYDYEFAYWGQGTLVTVSA VL: DIVLTQSPVFLSVTPGEKVTITCRASQSIGTNIHWYQQKPDQSPKLLIKYASESISGVPSRFSGSGSGTDFTLTINSVESEDIADYYCQQNNNWPTTFGAGTKLELKR
binds	CoDAH design C2 VH/C1 Vκ (antibody, V domains shown, Cross pair; Measured as full length IgG) VH: QVQLQQSGPGLVKPSQTLSLTCTVSGFSLTNYGVHWVRQSPGKGLEWLGVIWSGGNTDYNTPFTSRLTISVDTSKNQVSLKLSSVTSNDTAVYYCARALTYYDYEFAYWGQGTLVTVSA VL: DIVLTQSPDFQSVTPKEKVTITCRASQSIGTNIHWYQQKPDQSPKLLIKYASESISGVPSRFSGSGSGTDFTLTINSVESEDIADYYCQQNNNWPTTFGAGTKLELKR
binds	CoDAH design C3 VH/C1 Vκ (antibody, V domains shown, Cross pair; Measured as full length IgG) VH: QVQLQQSGPGLVKPSETLSLTCTVSGFSLTNYGVHWVRQSPGKGLEWLGVIWSGGNTDYNTPFTSRLTISVDTSKNQVSLKLSSVTSNDTAVYYCARALTYYDYEFAYWGQGTLVTVSA VL: DIVLTQSPDFQSVTPKEKVTITCRASQSIGTNIHWYQQKPDQSPKLLIKYASESISGVPSRFSGSGSGTDFTLTINSVESEDIADYYCQQNNNWPTTFGAGTKLELKR
binds	CoDAH design C3 VH/C2 Vκ (antibody, V domains shown, Cross pair; Measured as full length IgG) VH: QVQLQQSGPGLVKPSETLSLTCTVSGFSLTNYGVHWVRQSPGKGLEWLGVIWSGGNTDYNTPFTSRLTISVDTSKNQVSLKLSSVTSNDTAVYYCARALTYYDYEFAYWGQGTLVTVSA VL: DIVLTQSPVFLSVTPGEKVTITCRASQSIGTNIHWYQQKPDQSPKLLIKYASESISGVPSRFSGSGSGTDFTLTINSVESEDIADYYCQQNNNWPTTFGAGTKLELKR
binds	CoDAH design C4 VH/C4 Vκ (antibody, V domains shown, Pareto optimal design; Measured as full length IgG) VH: QVQLQQSGPGLVKPSQTLSLTCTVSGFSLTNYGVHWVRQSPGKGLEWLGVIWSGGNTDYNTPFTSRLTISKDNSKSQVFFKMNSLQSNDTAVYYCARALTYYDYEFAYWGQGTLVTVSA VL: DIVLTQSPVILSVSPGERVTFSCRASQSIGTNIHWYQQKPDQSPKLLIKYASESISGVPSRFSGSGSGTDFTLTINSVESEDIADYYCQQNNNWPTTFGQGTKLELKR
binds	CoDAH design C5 VH/C4 Vκ (antibody, V domains shown, Cross pair; Measured as full length IgG) VH: QVQLQQSGPGLVKPSETLSITCTVSGFSLTNYGVHWVRQSPGKGLEWLGVIWSGGNTDYNTPFTSRLTINKDNSKSQVFFKMNSLQSNDTAVYYCARALTYYDYEFAYWGQGTLVTVSA VL: DIVLTQSPVILSVSPGERVTFSCRASQSIGTNIHWYQQKPDQSPKLLIKYASESISGVPSRFSGSGSGTDFTLTINSVESEDIADYYCQQNNNWPTTFGQGTKLELKR
binds	CoDAH design C3 VH/C4 Vκ (antibody, V domains shown, Cross pair; Measured as full length IgG) VH: QVQLQQSGPGLVKPSETLSLTCTVSGFSLTNYGVHWVRQSPGKGLEWLGVIWSGGNTDYNTPFTSRLTISVDTSKNQVSLKLSSVTSNDTAVYYCARALTYYDYEFAYWGQGTLVTVSA VL: DIVLTQSPVILSVSPGERVTFSCRASQSIGTNIHWYQQKPDQSPKLLIKYASESISGVPSRFSGSGSGTDFTLTINSVESEDIADYYCQQNNNWPTTFGQGTKLELKR
binds	CoDAH design C2 VH/C3 Vκ (antibody, V domains shown, Cross pair; Measured as full length IgG; also called C3 Vκ/C2 VH) VH: QVQLQQSGPGLVKPSQTLSLTCTVSGFSLTNYGVHWVRQSPGKGLEWLGVIWSGGNTDYNTPFTSRLTISVDTSKNQVSLKLSSVTSNDTAVYYCARALTYYDYEFAYWGQGTLVTVSA VL: DILLTQSPVILSVSPGERVTFSCRASQSIGTNIHWYQQKPDQSPKLLIKYASESISGVPSRFSGSGSGTDFTLTINSVESEDIADYYCQQNNNWPTTFGAGTKLELKR
binds	CoDAH design C1 VH/C3 Vκ (antibody, V domains shown, Cross pair; Measured as full length IgG) VH: QVQLQQSGPGLVKPSQTLSLTCTVSGFSLTNYGVHWVRQSPGKGLEWLGVIWSGGNTDYNTPFTSRLTISKDTSKNQVSLKLSSVTSNDTAVYYCARALTYYDYEFAYWGQGTLVTVSA VL: DILLTQSPVILSVSPGERVTFSCRASQSIGTNIHWYQQKPDQSPKLLIKYASESISGVPSRFSGSGSGTDFTLTINSVESEDIADYYCQQNNNWPTTFGAGTKLELKR
binds	CoDAH design C4 VH/C3 Vκ (antibody, V domains shown, Cross pair; Measured as full length IgG) VH: QVQLQQSGPGLVKPSQTLSLTCTVSGFSLTNYGVHWVRQSPGKGLEWLGVIWSGGNTDYNTPFTSRLTISKDNSKSQVFFKMNSLQSNDTAVYYCARALTYYDYEFAYWGQGTLVTVSA VL: DILLTQSPVILSVSPGERVTFSCRASQSIGTNIHWYQQKPDQSPKLLIKYASESISGVPSRFSGSGSGTDFTLTINSVESEDIADYYCQQNNNWPTTFGAGTKLELKR
binds	CoDAH design C4 VH/C5 Vκ (antibody, V domains shown, Cross pair; Measured as full length IgG) VH: QVQLQQSGPGLVKPSQTLSLTCTVSGFSLTNYGVHWVRQSPGKGLEWLGVIWSGGNTDYNTPFTSRLTISKDNSKSQVFFKMNSLQSNDTAVYYCARALTYYDYEFAYWGQGTLVTVSA VL: EIVLTQSPVILSVSPGERVTFSCRASQSIGTNIHWYQQKTDQSPRLLIKYASESISGIPSRFSGSGSGTDFTLTINSVESEDIADYYCQQNNNWPTTFGQGTKLELKR
binds	CoDAH design C3 VH/C3 Vκ (antibody, V domains shown, Pareto optimal design; Measured as full length IgG) VH: QVQLQQSGPGLVKPSETLSLTCTVSGFSLTNYGVHWVRQSPGKGLEWLGVIWSGGNTDYNTPFTSRLTISVDTSKNQVSLKLSSVTSNDTAVYYCARALTYYDYEFAYWGQGTLVTVSA VL: DILLTQSPVILSVSPGERVTFSCRASQSIGTNIHWYQQKPDQSPKLLIKYASESISGVPSRFSGSGSGTDFTLTINSVESEDIADYYCQQNNNWPTTFGAGTKLELKR
